From patent US8361965B2, “Recombinant chimeric protein of neutrophil inhibitory factor and hirugen, and pharmaceutical composition thereof” (Lunan Pharmaceutical Group Corporation, priority 2008, dated 2013)
Values joined by “and” are separate entries in the source; they are usually repeats but may differ in a detail not shown here. Identical values can stand only once. “Also recorded” adds a separate entry of the source. Like-named read-outs stand apart in the source and are kept apart here.

Key:
[1] = test system: cerebral ischemia in rats subjected to middle cerebral artery occlusion; assay type: in vivo, Wistar rats; conditions: for behavioral score: full score 11
[2] = test system: rabbit whole blood; test: in vitro whole blood anticoagulation assay; set-up: species or system white rabbit; conditions: for Test results (blood coagulation): room temperature 15 min
Description: TNHH was diluted to 4 mg/ml, 2 mg/ml, 1 mg/ml, 0.5 mg/ml respectively with phosphate buffer solution (10 mmol/L PB, 0.15 mol/L NaCl, pH7.4). Heparin sodium was prepared to 1 mg/ml with the same buffer solution.
Venous blood was taken from marginal ear vein of the rabbit, and rapidly added into 0#-5# tubes. 0.2 ml of the diluted TNHH samples with different concentrations was added into the 1#-4# tubes, respectively. 0.2 ml phosphate buffer solution was added into the 0# tube, which was used as a negative control. 0.2 ml heparin sodium (1 mg/ml) was added into the 5# tube, which was used as a positive control. The reagents were mixed rapidly and stored at room temperature for 15 min for observing the results.

[3] = test system: focal cerebral ischemia-reperfusion injury in rats; assay type: in vivo, Sprague-Dawley (SD) rats
[4] = biological target: T1, thrombin (Homo sapiens, UniProt P00734); test: in vitro binding of TNHH to thrombin (SEC-HPLC); set-up: Human thrombin (127 Unit/ampoule), Lot No.: 20021105; purchased National Institute for The Control of Pharmaceutical and Biological Products Lot No.: 20021105; conditions: 37° C. 1 h
Description: Weigh TNHH, dilute to 1.0 mg/ml with phosphate buffer solution, and is ready for use; Weight fibrin precisely, dissolve and dilute to 0.1 mg/ml with phosphate buffer solution, and is ready for use; Weigh thrombin, dissolve and dilute to 100 units/ml with phosphate buffer solution, which is ready for use.
Following the below procedures, test materials were reacted at 37° C. for 1 h, and then analyzed under the following chromatographic conditions.
(1) pipette test material solutions (20 μl for each), loading for analysis, and recording each retention time.
(2) pipette fibrin and thrombin solutions (0.5 ml for each), mixing and reacting at 37° C. for 1 h, and loading 20 μl sample for analysis.
(3) pipette TNHH and fibrin solutions (0.5 ml for each), mixing and reacting at 37° C. for 1 h, and loading 20 μl sample for analysis.
(4) pipette TNHH and thrombin solutions (0.5 ml for each), mixing and reacting at 37° C. for 1 h, and loading 20 μl sample for analysis.
(5) pipette TNHH and mixture of fibrin and thrombin solutions (0.5 ml for each), mixing and reacting at 37° C. for 1 h, and loading 20 μl sample for analysis.
Flow rate 0.5 ml/min; detection wavelength: 214 nm, Column temperature: room temperature; chromatogram recording time: 25 min.

[5] = biological target: T1, thrombin; test: in vitro test for reversible reaction of TNHH and thrombin (Hirudin ELISA); assay type: biochemical; set-up: Human thrombin (127 Unit/ampoule), Lot No.: 20021105; purchased National Institute for The Control of Pharmaceutical and Biological Products Lot No.: 20021105
Description: Adding 1.27 ml water into one ampoule of human thrombin, and mixing to obtain 100 Unit/ml solution; diluting the mother liquid of TNHH with water to 1.0 mg/ml, taking 0.5 ml thus obtained solution and adding 0.1 ml thrombin solution ([…] of thrombin), reacting at 37 for 2 hr, centrifuging and collecting the supernatant, diluting for 10 times with the dilution solution (taught by the instruction of IMUBIND® Hirudin ELISA Kit), repeating the dilution for 6 times at a four fold gradient, detecting according to the instruction of IMUBIND® Hirudin ELISA Kit, and determining the absorbance at 450 nm wavelength.

[6] = M-1, TNHH 2.25 mg/kg i.v. (middle dose)
[7] = M-1, TNHH 6.75 mg/kg i.v. (high dose)
[8] = M-2, TNHH 2.25 mg/kg i.v. (middle dose)
[9] = M-2, TNHH 6.75 mg/kg i.v. (high dose)

B1: TNHH: recombinant chimeric protein of neutrophil inhibitory factor and hirugen, Met-NIF-GGGGG-FPRPGSGG-Hirugen (SEQ ID NO: 3), expressed in E. coli (protein)
chain: MNEHNLRCPQNGTEMPGFNDSIRLQFLAMHNGYRSKLALGHISITEESESDDDDDFGFLPDFAPRASKMRYLEYDCEAEKSAYMSARNCSDSSSPPEGYDENKYIFENSNNISEAALKAMISWAKEAFNLNKTKEGEGVLYRSNHDISNFANLAWDAREKFGCAVVNCPLGEIDDETNHDGETYATTIHVVCHYPKINKTEGQPIYKVGTPCDDCSEYTKKADNTTSADPVCIPDDGVCFIGSKADYDSKEFYRFRELGGGGGFPRPGSGGNGDFEEIPEEYL
modifications: N-terminal Met
[1]; 2 mg/kg bid caudal vein, 4 h
  behavioral score: 6.5 ± 1.0
[1]; 2 mg/kg bid caudal vein, 8 h
  behavioral score: 6.2 ± 1.2
[1]; 2 mg/kg bid caudal vein, 24 h
  behavioral score: 5.8 ± 1.2
[1]; 2 mg/kg bid caudal vein, 48 h
  behavioral score: 5.3 ± 0.5
[1]; 2 mg/kg bid caudal vein, 72 h
  behavioral score: 5.0 ± 0.6
[1]; 2 mg/kg bid caudal vein, HE, compared with model group
  pathological section of brain (cerebral cortex nerve cells): least pathological changes; also recorded: more regular structural arrangements, a portion of deeply stained nucleus, and some cytoplasmic shrinkage or disappearance
[1]; 72 h
  Cerebral infarction volume (%): 23.2 ± 5.4 %
[2]; 0.2 ml TNHH 0.5 mg/ml + 1.0 ml rabbit blood
  Test results (blood coagulation): coagulated
[2]; 0.2 ml TNHH 1 mg/ml + 1.0 ml rabbit blood
  Test results (blood coagulation): coag-
[2]; 0.2 ml TNHH 2 mg/ml + 1.0 ml rabbit blood
  Test results (blood coagulation): coag-
[2]; 0.2 ml TNHH 4 mg/ml + 1.0 ml rabbit blood
  Test results (blood coagulation): coag-
[2]; TNHH 0.5-4 mg/ml
  whole blood anticoagulation effects in vitro: no whole blood anticoagulation effects
[2]; different concentrations of TNHH (0.5-4 mg/ml)
  blood coagulation: coagulated
[3]; M-1 (occlusion 1 h, reperfusion 48 h), TNHH 0.75 mg/kg i.v. (low dose)
  Cerebral infarction volume (%), based on the total volume of the brain: 19.93±12.40%
[3]; M-1 (occlusion 1 h, reperfusion 48 h), TNHH 0.75 mg/kg i.v., 2 h
  nervous symptom score: 1.46 ± 0.58
[3]; M-1, TNHH 0.75 mg/kg i.v. (low dose)
  Decrease in percentage (%), compared with corresponding model group: 10.54%
[3]; M-1, TNHH 0.75 mg/kg i.v., 6 h
  nervous symptom score: 1.42 ± 0.60
[3]; M-1, TNHH 0.75 mg/kg i.v., 12 h
  nervous symptom score: 1.42 ± 0.60
[3]; M-1, TNHH 0.75 mg/kg i.v., 24 h
  nervous symptom score: 1.40 ± 0.43
[3]; M-1, TNHH 0.75 mg/kg i.v., 48 h
  nervous symptom score: 1.36 ± 0.62
[3]; [6]
  Cerebral infarction volume (%), based on the total volume of the brain: 19.41±11.74%
  Decrease in percentage (%), compared with corresponding model group: 12.88%
[3]; M-1, TNHH 2.25 mg/kg i.v., 2 h
  nervous symptom score: 1.47 ± 0.92
[3]; M-1, TNHH 2.25 mg/kg i.v., 6 h
  nervous symptom score: 1.47 ± 0.92
[3]; M-1, TNHH 2.25 mg/kg i.v., 12 h
  nervous symptom score: 1.37 ± 0.92
[3]; M-1, TNHH 2.25 mg/kg i.v., 24 h
  nervous symptom score: 1.38 ± 0.41
[3]; M-1, TNHH 2.25 mg/kg i.v., 48 h
  nervous symptom score: 1.30 ± 0.76
[3]; [7]
  Cerebral infarction volume (%), based on the total volume of the brain: 12.89±8.94%
  Decrease in percentage (%), compared with corresponding model group: 42.14% and 42.15** %
[3]; M-1, TNHH 6.75 mg/kg i.v., 2 h
  nervous symptom score: 1.50 ± 0.58
[3]; M-1, TNHH 6.75 mg/kg i.v., 6 h
  nervous symptom score: 1.50 ± 0.68
[3]; M-1, TNHH 6.75 mg/kg i.v., 12 h
  nervous symptom score: 1.39 ± 0.65
[3]; M-1, TNHH 6.75 mg/kg i.v., 24 h
  nervous symptom score: 1.20 ± 0.36
[3]; M-1, TNHH 6.75 mg/kg i.v., 48 h
  nervous symptom score: 1.00 ± 0.42
[3]; M-2 (occlusion 2 h, reperfusion 48 h), TNHH 0.75 mg/kg i.v. (low dose)
  Cerebral infarction volume (%), based on the total volume of the brain: 27.52±17.63% and 27.52 ± 7.63%
[3]; M-2 (occlusion 2 h, reperfusion 48 h), TNHH 0.75 mg/kg i.v., 2 h
  nervous symptom score: 1.94 ± 0.56
[3]; M-2, TNHH 0.75 mg/kg i.v. (low dose)
  Decrease in percentage (%), compared with corresponding model group: 3.63%
[3]; M-2, TNHH 0.75 mg/kg i.v., 6 h
  nervous symptom score: 1.94 ± 0.56
[3]; M-2, TNHH 0.75 mg/kg i.v., 12 h
  nervous symptom score: 1.94 ± 0.73
[3]; M-2, TNHH 0.75 mg/kg i.v., 24 h
  nervous symptom score: 1.88 ± 0.64
[3]; M-2, TNHH 0.75 mg/kg i.v., 48 h
  nervous symptom score: 1.86 ± 0.77
[3]; [8]
  Cerebral infarction volume (%), based on the total volume of the brain: 26.07±8.06%
  Decrease in percentage (%), compared with corresponding model group: 7.42%
[3]; M-2, TNHH 2.25 mg/kg i.v., 2 h
  nervous symptom score: 1.81 ± 0.92
[3]; M-2, TNHH 2.25 mg/kg i.v., 6 h
  nervous symptom score: 1.80 ± 0.92
[3]; M-2, TNHH 2.25 mg/kg i.v., 12 h
  nervous symptom score: 1.79 ± 0.92
[3]; M-2, TNHH 2.25 mg/kg i.v., 24 h
  nervous symptom score: 1.68 ± 0.41
[3]; M-2, TNHH 2.25 mg/kg i.v., 48 h
  nervous symptom score: 1.67 ± 0.76
[3]; [9]
  Cerebral infarction volume (%), based on the total volume of the brain: 19.72±8.90% and 19.72 ± 5.90%
  Decrease in percentage (%), compared with corresponding model group: 29.97%
[3]; M-2, TNHH 6.75 mg/kg i.v., 2 h
  nervous symptom score: 1.75 ± 0.52
[3]; M-2, TNHH 6.75 mg/kg i.v., 6 h
  nervous symptom score: 1.75 ± 0.27
[3]; M-2, TNHH 6.75 mg/kg i.v., 12 h
  nervous symptom score: 1.50 ± 0.45
[3]; M-2, TNHH 6.75 mg/kg i.v., 24 h
  nervous symptom score: 1.37 ± 0.52
[3]; M-2, TNHH 6.75 mg/kg i.v., 48 h
  nervous symptom score: 1.22 ± 0.38
[4]
  binding with thrombin: could bind with fibrin and thrombin
[5]; 37, 2 hr, Hirudin ELISA of supernatant
  in vitro interaction with thrombin (reversibility): irreversible
[5]; structure FPRP-GSGG-hirugen within TNHH
  hydrolysis by thrombin: could not be hydrolyzed by thrombin
